Results published in article PMC3354570 (Structure(London, England:1993), 2012).

Target: the molecule itself
Assay: AUC

B1: human apolipoprotein A-IV core domain, residues 64-335 (domain or fragment, UniProt P06727 84-355, looked up)
chain: ATELHERLAKDSEKLKEEIGKELEELRARLLPHANEVSQKIGDNLRELQQRLEPYADQLRTQVSTQAEQLRRQLTPYAQRMERVLRENADSLQASLRPHADELKAKIDQNVEELKGRLTPYADEFKVKIDQTVEELRRSLAPYAQDTQEKLNHQLEGLTFQMKKNAEELKARISASAEELRQRLAPLAEDVRGNLRGNTEGLQKSLAELGGHLDQQVEEFRRRVEPYGENFNKALVQQMEQLRQKLGPHAGDVEGHLSFLEKDLRDKVNSFF
stoichiometry N: 2
